Laboratory results published in patent US7871782B2, “Specific binding members against synaptophysin” (The University Court of the University of Aberdeen, priority 2004, dated 2011).

Experiments:
[1] = system: HSCs; test: Effect of scAb incubation on HSC viability (attachment, protein assay); assay type: cell-based, human; conditions: 3 hours incubation, 5 μg scAb or indicated chemical, FIG. 12
Description: Effect of scAb incubation on HSC viability. HSCs seeded into 24 well plates were incubated in 0.3 mls culture medium containing 5 μg scAb or the indicated-chemical. Cells were incubated for 3 hours prior to removal of medium and washing with 1×PBS. Attachment (as a measure of viability) was determined by a direct protein assay in the culture wells.

[2] = system: human HSCs; test: HSC viability with gliotoxin and C1-3-gliotoxin conjugate; assay type: cell-based; conditions: 1.5 uM gliotoxin; 10 ug C1-3-gliotoxin conjugate in 500 ul medium; FIG. 14
Description: HSC viability. Human HSCs in 24 well plate culture were treated with 500 ul medium containing either DMSO vehicle; 1.5 uM gliotoxin (750 pmoles); 20 ul C1-3 scAb at 1 mg/ml (20 ug C1-3 scAb); or 20 ul C1-3-gliotoxin conjugate at 0.5 mg/ml (10 ug C1-3 scAb-250 pmoles C1-3 scAb*/1000 pmoles gliotoxidn). *0.5 mg C1-3 protein/ml stock=12.5 uM=12.5 nmoles/ml=12.5 pmol/ul

[3] = system: HepG2 cells; test: Fluorescence binding to cells; assay type: cell-based
[4] = system: COS-7 cells; test: Fluorescence binding to cells; assay type: cell-based
[5] = system: human HSC; test: FACS analysis of human HSC cultures; assay type: cell-based; conditions: co-staining under native conditions prior to fixing, 1 hour 37° C., FIG. 10
Description: FACS analysis of human HSC incubated without (UPPER PANEL) or with (LOWER PANEL) primary antibodies—i.e. FITC-C13 scAb (FITC) and a mouse monoclonal antibody to α-smooth muscle actin (αsma-APC). Anti-α-smooth muscle actin antibody was detected using a biotin conjugated secondary antibody followed by fluorophore-streptavidin conjugate incubation as outlined in the Methods section. Figures represent the percentage of cells in each quadrant. Data are typical of 3 separate cell preparations.
FITC-C1-3 scAb was added to culture medium (200 μg/10 mls) and incubated with a confluent (10 cm diameter dish) culture of HSCs for 1 hour at 37° C. The medium was then removed and the cells were washed in PBS. The cells were then detached from the culture substratum non-enzymatically using cell dissociation solution (Sigma, Poole, UK), pelleted by centrifugation and fixed/permeabilised using BD cytofix/cytoperm (BD Biosciences, Oxford, UK). After 15 minutes, the cells were washed in 0.5 mls 1× wash/perm buffer (BD Biosciences, Oxford, UK) and incubated with a mouse anti-α-smooth muscle actin monoclonal antibody (Sigma, Poole, UK) diluted in 1× wash/perm buffer. […] The cells were analysed by flow cytometry (LSR I, BD, Oxford, UK). […]

[6] = system: human hepatocytes; test: Fluorescence microscopy of FITC-labelled scAb with cells; assay type: cell-based
Description: (§1) FITC-C1-3 scAb was tested for its ability to interact with hepatic stellate cells in culture by fluorescence microscopy. Human hepatic stellate cells were seeded (1×10^3 cells per chamber) on chamber slides (Nunclon, Naperville) in complete medium prior to experimentation. Cells were washed twice in phosphate buffered saline (PBS) and incubated in 500 μl Hepes/HBSS buffer (0.14M NaCl, 5.4 mM KCl, 0.34 mM Na2HPO4, 0.94 mm KH2PO4, 5.6 mM glucose, 1 mM CaCl2, 6 mM HEPES, 4 mM NaHCO3 pH7.4) containing 10 μg scAb or FITC-C1-3 scAb for 1 h at room temperature in the dark. The cells were then washed in PBS and mounted with Vectashield mounting medium (Vector laboratories, Burlingame, Calif.) containing 4′,6′ diamindino-2 phenylindole (DAPI) to stain cell nuclei and coverslips applied. Florescence microscopy was carried out using a Zeiss Axeola II microscope with a Photometrics Sensis camera, and data captured using the Smart Capture programme. Human hepatocytes (UK Human Tissue Bank) were originally cultured in a collagen-coated 24 well plate (1×10^5/well) and maintained in William's medium E supplemented with 80 units/ml penicillin and 80 μg/ml streptomycin.

[7] = system: human hepatic stellate cells; test: as above; assay type: cell-based
Description: as §1

[8] = system: hepatic stellate cell and hepatocytes co-cultured; assay type: cell-based, human
Description: For co-culture experiments, hepatic stellate cells were seeded into hepatocytes cultures (1×10^3 cells per well) and cultured for 24 h prior to experimentation. The C1-3 or FITC-C1-3 scAb was incubated as outlined for pure hepatic stellate cell cultures except that after 1 hour incubation and washing, the cells were harvested by trypsinisation and centrifugation at 1000 rpm for 5 min. The cell pellet was then resuspended in 0.4% formaldehyde/10^6 cells, applied onto glass slides by cytocentrifugation and mounted with Vectashield containing DAPI. Slides were viewed by fluorescence microscopy as before.

[9] = system: human HSCs; test: Fluorescence microscopy without fixation: effect of peptides and monensin on FITC-C1-3 scAb binding; assay type: cell-based; conditions: 10 μg scAb, 1 hour, no fixation, FIG. 13
Description: Effect of synaptophysin peptides and monensin on FITC-C1-3 scAb binding to human HSCs. Human HSCs seeded into 24 well plates were washed and incubated in 500 μl Hepes/HBSS per well for 1 hour containing either: 10 μg C1-3 scAb; 10 μg FITC-C1-3 scAb; 10 μg FITC-C1-3 scAb and 0.25 nmoles of the target peptide; 10 μg FITC-C1-3 scAb and 2.5 nmoles of the target peptide; 10 μg FITC-C1-3 scAb and 25 nmoles of the target peptide; 10 μg FITC-C1-3 scAb and 25 nmoles of the target peptide P1; 10 μg FITC-C1-3 scAb and 2.5 μM monensin; 10 μg FITC-C1-3 scAb and 15 μM monensin; 10 μg FITC-3A8 scAb (scAb raised to microcystin and not expected to bind to HSCs). Cells incubated with monensin were preincubated for 10 minutes. Just prior to addition of scAb, the medium was changed and cells were re-dosed with monensin. […] Bar=μm. Monen=monensin; P1=the […] peptide (SEQ ID NO 27); P2=the target peptide.
HSCs seeded into 24 well plates were washed with Hepes/HBSS and then incubated at 37° C. in 500 μl/well Hepes/HBSS containing 10 μg scAb with or without additional compounds. After 1 hour, the cells were washed 3 times with 500 μl Hepes/HBSS. Cells were analysed using an Axiovert 100 microscope (Zeiss, Germany) using filter set #9 (BP 450-490 nm; LP 515 nm).

[10] = system: human HSCs; test: Uptake of scAb and conjugates by human HSCs in culture (Western blot of medium); assay type: cell-based; conditions: 5 μg scAb in 0.3 mls medium, FIG. 11
Description: Uptake of C1-3 scAb and C1-3-conjugates by human HSCs in culture. HSCs seeded into 24 well plates were incubated in 0.3 mls culture medium containing 5 μg scAb. Samples of medium were taken at the indicated times and subjected to Western blotting to detect scAb using HRP-conjugated anti-human Cκ light chain antibody (UPPER PANEL) and serum albumin (LOWER PANEL) as a loading control. Results typical of 4 separate experiments.

CN1C(=O)[C@]23CC4=CC=C[C@H](O)[C@H]4N2C(=O)[C@@]1(CO)SS3 [gliotoxin]
toxicity to HSCs (attachment as measure of viability) [1]: kill HSCs | killing of human HSCs [2]: killed human HSCs

B1: FITC-C1-3 scAb: C1-3 scAb labelled with FITC (conjugate)
scFv: MAEVQLLESGGGLVQPGGSLRLSCAASGFTFSSYAMSWVRQAPGKGLEWVSTIAASGPSTGYADSVKGRFTISRDNSKNTLYLQMNSLRAEDTAVYYCAKTTAKFDYWGQGTLVTVSSGGGGSGGGGSGGGGSTDIQMTQSPSSLSASVGDRVTITCRASQSISSYLNWYQQKPGKAPKLLIYSASRLQSGVPSRFNGSGSGTDFTLTISSLQPEDFATYYCQQLQRKPTTFGQGTKVEIKRGAAAPSVFIFPPSDEQLKSGTASVVCLLNNFYPREAKVQWKVDNALQSGNSQESVTEQDSKDSTYSLSSTLTLSKADYEKHKVYACEVTHQGLSSPVTKSFNRGESHHHHHH
fluorescence binding to HepG2 cells [3]: not detected | fluorescence binding to COS-7 cells [4]: not detected | binding to α-smooth muscle actin positive human HSCs (FACS) [5]: all the cells bound C1-3 scAb | green fluorescence associated with human hepatocytes [6]: no associated green fluorescence | green fluorescence associated with hepatic stellate cells ([7]; 10 μg scAb, 1 h, room temperature): fluorescence was associated with hepatic stellate cells | location of fluorescence in hepatic stellate cells ([7]; mounting medium with DAPI): fluorescence was located around the nuclear and cell membranes | green fluorescence in hepatic stellate cell/hepatocyte co-cultures [8]: Fluorescence was observed on stellate cells whilst hepatocytes consistently failed to display detectable levels of associated green fluorescence | association of FITC-labelled scAb with HSCs [9]: associated with HSCs | association with HSCs: change of culture medium concentration of scAb [10]: reduction in culture medium concentrations
